Experimental data from patent CN111303278A.

Legend:
[1] = biological target: RSV G中央保守域(CCD)生物素结合的肽 SYM-1706 (RSV); assay: ELISA, biotinylated peptide on avidin plate, mAb titrated
长RSV G肽 (表15) = assay: as above
[2] = biological target: RSV株A/长(ATCC目录号VR-26)的G蛋白 (RSV A/长) (UniProt P20895); assay: cell-based or functional assay

Binder	IC50 [1] [µg/mL]	IC50 (长RSV G肽 (表15)) [µg/mL]	IC50 (空斑减少分析, 50%中和空斑形成) [2] [µg/mL]
CB017.5L (antibody, V domains shown) VH: QVQLVESGGGVVQPGRSLRLSCSASGFTFSVYAMHWVRQAPGQGLEWVAIIWYDGSNKYYADSVKGRFTISRDNSKETLYLQMNSLRVEDTAVYYCARDPIVGHTRDGLDVWGQGTTVTVSS VL: SYELTQPPSVSVSPGQTARVTCSGDAMAEQYTYWYQQKPGQAPVLIIFKDTERPSGIPERFSGSSSGTTVTLTISGVQTEDEADYYCQSTDSSGTSWVFGGGTKLTVL	0.02	0.02	–
CB030.1 (antibody, V domains shown) VH: QVQLVQSGAEMKRPGSSVKVSCKASGGTFSTFAINWVRQAPGQGFEWMGGVIPGFDSANYAQKFQGRLTMSADESTSTVYMELSSLRSDDTAVYYCAGNSGYCSGDSCAPNWGPGTLVTVSS VL: DIVMTQSPLSLPVTPGEPASISCRSSQSLVHSNGYSYLDWYLQKPGQSPQLLIYLGSNRPSGVPDRFSGSGSGTDFTLKISRVEAEDVGVYFCMQNLQTPTFGGGTKVEIK	0.02	0.02	–
CR9505 (antibody, from another filing, V domains shown) VH: EVQLQQSGPELVKPGTSVKISCKASGYSFTGFTMNWVKQSHGKNLEWFGLINPFNGNTGYNQKFKGKATLTVDKSSSTAFMELLSLTSEDSAVYYCARSGKSYDYEAWFTYWGQGTLVTVSA VL: DIVMTQTTLSLPVSLGNQASISCRSSQTIVHTNGNTYLEWYLQKPGQSPKLLIYKVSNRFSGVPDRFSGSGSGTDFILNISRVEAEDLGVYYCFQGSHVPFTFGSGTKLEIKR	–	–	0.018
